Measurements published in the supplement of paper PMC9112550, “Optimization of the antimicrobial peptide Bac7 by deep mutational scanning” (BMC Biology, 2022).

Test system: Escherichia coli TOP10
Test: shrunken log2 fold change of peptide-encoding DNA abundance (4.5 h post-induction vs induction); higher = less antimicrobial activity (less host growth inhibition)
Settings: time post-induction: 4.5 h; library: site-saturation at positions 5, 18, 19, 20
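Also: peptides expressed intracellularly from a pBAD plasmid library in pooled LB shake-flask culture, induced with 0.3% L-arabinose, DNA abundance read by NGS, three biological replicates, DESeq2 with apeglm shrinkage.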

Row | Sequence | shrunken log2 fold change
1 | RRIRERPPRLPRPRPRPKNPPRP | -0.503
2 | RRIRERPPRLPRPRPRPKPHPRP | 0.000708
3 | RRIRERPPRLPRPRPRPKPMPRP | 0.21
4 | RRIRERPPRLPRPRPRPKQMPRP | -0.19
5 | RRIRERPPRLPRPRPRPKRGPRP | 0.385
6 | RRIRERPPRLPRPRPRPKRKPRP | 0.25
7 | RRIRERPPRLPRPRPRPKSAPRP | 0.116
8 | RRIRERPPRLPRPRPRPKSDPRP | -0.0784
9 | RRIRERPPRLPRPRPRPKTAPRP | -0.0233
10 | RRIRERPPRLPRPRPRPKTCPRP | -0.267
11 | RRIRERPPRLPRPRPRPKTNPRP | -0.293
12 | RRIRERPPRLPRPRPRPKVKPRP | 0.0263
13 | RRIRERPPRLPRPRPRPKWRPRP | -0.102
14 | RRIRERPPRLPRPRPRPKYIPRP | -0.0434
15 | RRIRERPPRLPRPRPRPKYRPRP | -0.00726
16 | RRIRERPPRLPRPRPRPLCGPRP | -0.2
17 | RRIRERPPRLPRPRPRPLCPPRP | -0.393
18 | RRIRERPPRLPRPRPRPLDNPRP | -0.487
19 | RRIRERPPRLPRPRPRPLIHPRP | -0.522
20 | RRIRERPPRLPRPRPRPLLAPRP | 0.173
21 | RRIRERPPRLPRPRPRPLLHPRP | -0.288
22 | RRIRERPPRLPRPRPRPLNEPRP | -0.13
23 | RRIRERPPRLPRPRPRPLNFPRP | -0.34
24 | RRIRERPPRLPRPRPRPLQFPRP | -0.468
25 | RRIRERPPRLPRPRPRPLRFPRP | 0.493

Row | Sequence | shrunken log2 fold change
26 | RRIRERPPRLPRPRPRPLRRPRP | 0.303
27 | RRIRERPPRLPRPRPRPLWIPRP | -0.558
28 | RRIRERPPRLPRPRPRPLYIPRP | -0.668
29 | RRIRERPPRLPRPRPRPLYLPRP | -0.77
30 | RRIRERPPRLPRPRPRPMCEPRP | 0.0303
31 | RRIRERPPRLPRPRPRPMCQPRP | -0.051
32 | RRIRERPPRLPRPRPRPMCSPRP | -0.00794
33 | RRIRERPPRLPRPRPRPMDYPRP | -0.214
34 | RRIRERPPRLPRPRPRPMFCPRP | -0.168
35 | RRIRERPPRLPRPRPRPMFHPRP | -0.897
36 | RRIRERPPRLPRPRPRPMGYPRP | -0.0965
37 | RRIRERPPRLPRPRPRPMIHPRP | -0.65
38 | RRIRERPPRLPRPRPRPMKHPRP | -0.794
39 | RRIRERPPRLPRPRPRPMKKPRP | 0.00499
40 | RRIRERPPRLPRPRPRPMKRPRP | -0.312
41 | RRIRERPPRLPRPRPRPMKVPRP | -0.0915
42 | RRIRERPPRLPRPRPRPMKYPRP | 0.0847
43 | RRIRERPPRLPRPRPRPMLEPRP | 0.282
44 | RRIRERPPRLPRPRPRPMLLPRP | -0.166
45 | RRIRERPPRLPRPRPRPMMAPRP | -0.128
46 | RRIRERPPRLPRPRPRPMMHPRP | 0.0413
47 | RRIRERPPRLPRPRPRPMNLPRP | -0.0666
48 | RRIRERPPRLPRPRPRPMNVPRP | -0.00243
49 | RRIRERPPRLPRPRPRPMQLPRP | 0.0995
50 | RRIRERPPRLPRPRPRPMQWPRP | 0.00938

Row | Sequence | shrunken log2 fold change
51 | RRIRERPPRLPRPRPRPMRNPRP | -0.062
52 | RRIRERPPRLPRPRPRPMRPPRP | 0.772
53 | RRIRERPPRLPRPRPRPMSAPRP | 0.00792
54 | RRIRERPPRLPRPRPRPMSDPRP | -0.235
55 | RRIRERPPRLPRPRPRPMSPPRP | -0.0381
56 | RRIRERPPRLPRPRPRPMTAPRP | -0.0417
57 | RRIRERPPRLPRPRPRPMTEPRP | -0.116
58 | RRIRERPPRLPRPRPRPMTHPRP | -0.0346
59 | RRIRERPPRLPRPRPRPMVCPRP | -0.0478
60 | RRIRERPPRLPRPRPRPMVPPRP | -0.103
61 | RRIRERPPRLPRPRPRPMWLPRP | -0.07
62 | RRIRERPPRLPRPRPRPMWRPRP | -0.0079
63 | RRIRERPPRLPRPRPRPNAMPRP | 0.0107
64 | RRIRERPPRLPRPRPRPNCIPRP | -0.712
65 | RRIRERPPRLPRPRPRPNDYPRP | -0.41
66 | RRIRERPPRLPRPRPRPNEDPRP | -0.151
67 | RRIRERPPRLPRPRPRPNEIPRP | -0.181
68 | RRIRERPPRLPRPRPRPNFVPRP | 0.0109
69 | RRIRERPPRLPRPRPRPNFYPRP | -0.261
70 | RRIRERPPRLPRPRPRPNGGPRP | -0.0469
71 | RRIRERPPRLPRPRPRPNHGPRP | -0.348
72 | RRIRERPPRLPRPRPRPNHLPRP | 0.0486
73 | RRIRERPPRLPRPRPRPNHMPRP | -0.31
74 | RRIRERPPRLPRPRPRPNHNPRP | -0.418
75 | RRIRERPPRLPRPRPRPNHWPRP | -0.138

Row | Sequence | shrunken log2 fold change
76 | RRIRERPPRLPRPRPRPNKNPRP | 0.0755
77 | RRIRERPPRLPRPRPRPNKVPRP | -0.372
78 | RRIRERPPRLPRPRPRPNLKPRP | -0.56
79 | RRIRERPPRLPRPRPRPNMEPRP | -0.384
80 | RRIRERPPRLPRPRPRPNMIPRP | -0.272
81 | RRIRERPPRLPRPRPRPNNDPRP | -0.663
82 | RRIRERPPRLPRPRPRPNNFPRP | -0.0786
83 | RRIRERPPRLPRPRPRPNNQPRP | -0.59
84 | RRIRERPPRLPRPRPRPNPSPRP | -0.162
85 | RRIRERPPRLPRPRPRPNQQPRP | -0.112
86 | RRIRERPPRLPRPRPRPNRIPRP | -0.0288
87 | RRIRERPPRLPRPRPRPNVAPRP | -0.186
88 | RRIRERPPRLPRPRPRPNVLPRP | -0.0106
89 | RRIRERPPRLPRPRPRPNYNPRP | -1.1
90 | RRIRERPPRLPRPRPRPNYYPRP | -0.893
91 | RRIRERPPRLPRPRPRPPCVPRP | -0.159
92 | RRIRERPPRLPRPRPRPPDNPRP | 0.197
93 | RRIRERPPRLPRPRPRPPDSPRP | -0.303
94 | RRIRERPPRLPRPRPRPPEEPRP | 0.499
95 | RRIRERPPRLPRPRPRPPEYPRP | -0.0278
96 | RRIRERPPRLPRPRPRPPFDPRP | -0.0468
97 | RRIRERPPRLPRPRPRPPGCPRP | 0.124
98 | RRIRERPPRLPRPRPRPPGDPRP | 0.619
99 | RRIRERPPRLPRPRPRPPGGPRP | 0.56
100 | RRIRERPPRLPRPRPRPPGPPRP | 0.478

Row | Sequence | shrunken log2 fold change
101 | RRIRERPPRLPRPRPRPPGQPRP | 0.104
102 | RRIRERPPRLPRPRPRPPGYPRP | -0.175
103 | RRIRERPPRLPRPRPRPPHIPRP | -0.366
104 | RRIRERPPRLPRPRPRPPHLPRP | -0.0668
105 | RRIRERPPRLPRPRPRPPKEPRP | 0.0608
106 | RRIRERPPRLPRPRPRPPKPPRP | 0.122
107 | RRIRERPPRLPRPRPRPPLHPRP | -0.0595
108 | RRIRERPPRLPRPRPRPPLKPRP | 0.322
109 | RRIRERPPRLPRPRPRPPNLPRP | 0.0423
110 | RRIRERPPRLPRPRPRPPNPPRP | 0.216
111 | RRIRERPPRLPRPRPRPPQMPRP | 0.208
112 | RRIRERPPRLPRPRPRPPRHPRP | 0.0414
113 | RRIRERPPRLPRPRPRPPSVPRP | -0.126
114 | RRIRERPPRLPRPRPRPPVFPRP | -0.152
115 | RRIRERPPRLPRPRPRPPVWPRP | 0.634
116 | RRIRERPPRLPRPRPRPPWCPRP | 0.217
117 | RRIRERPPRLPRPRPRPPWDPRP | -0.0062
118 | RRIRERPPRLPRPRPRPPWKPRP | 0.0356
119 | RRIRERPPRLPRPRPRPPWWPRP | 0.537
120 | RRIRERPPRLPRPRPRPQAAPRP | -0.194
121 | RRIRERPPRLPRPRPRPQALPRP | -0.378
122 | RRIRERPPRLPRPRPRPQCDPRP | -0.162
123 | RRIRERPPRLPRPRPRPQCLPRP | -0.116
124 | RRIRERPPRLPRPRPRPQDSPRP | -0.222
125 | RRIRERPPRLPRPRPRPQDVPRP | -0.177

Row | Sequence | shrunken log2 fold change
126 | RRIRERPPRLPRPRPRPQDYPRP | -0.091
127 | RRIRERPPRLPRPRPRPQEEPRP | -0.000946
128 | RRIRERPPRLPRPRPRPQEKPRP | -0.015
129 | RRIRERPPRLPRPRPRPQFEPRP | -0.0369
130 | RRIRERPPRLPRPRPRPQGTPRP | 0.0468
131 | RRIRERPPRLPRPRPRPQHKPRP | -0.467
132 | RRIRERPPRLPRPRPRPQITPRP | -0.778
133 | RRIRERPPRLPRPRPRPQIYPRP | -0.23
134 | RRIRERPPRLPRPRPRPQKMPRP | -0.28
135 | RRIRERPPRLPRPRPRPQMHPRP | -0.634
136 | RRIRERPPRLPRPRPRPQMVPRP | -0.0708
137 | RRIRERPPRLPRPRPRPQPMPRP | -0.185
138 | RRIRERPPRLPRPRPRPQRHPRP | 1.63
139 | RRIRERPPRLPRPRPRPQRPPRP | -0.0471
140 | RRIRERPPRLPRPRPRPQSKPRP | -0.769
141 | RRIRERPPRLPRPRPRPQSNPRP | -0.172
142 | RRIRERPPRLPRPRPRPQVNPRP | -0.129
143 | RRIRERPPRLPRPRPRPQVQPRP | 0.029
144 | RRIRERPPRLPRPRPRPQVTPRP | -0.118
145 | RRIRERPPRLPRPRPRPQYLPRP | -0.0574
146 | RRIRERPPRLPRPRPRPQYPPRP | -0.208
147 | RRIRERPPRLPRPRPRPRANPRP | -0.158
148 | RRIRERPPRLPRPRPRPRAWPRP | 0.195
149 | RRIRERPPRLPRPRPRPRCMPRP | -0.355
150 | RRIRERPPRLPRPRPRPRDSPRP | 0.0154
